In PMC10955726, “DNA‐dependent phase separation by human SSB2 (NABP1/OBFC2A) protein points to adaptations to eukaryotic genome repair processes” one finds Kd data, which are given here for three molecules.

In series [1] the target is T1, hSSB2 (C-terminally His-tagged) (Homo sapiens, UniProt Q96AH0 1-204). Description: fluorescence anisotropy; no MgCl2; Hill n 2.7; Anisotropy: standard LLPS buffer without MgCl2 (50 mM KCl standard), 25 C, 10 nM probe; EMSA: standard LLPS buffer (50 mM KCl, 10 mM MgCl2), 50 nM probe, 1% agarose; buffer species and pH not in the material. The following applies: protein: recombinant; tags: C-terminal His; label: 3'-fluorescein; single strand. On the technique in general: Polarisation of emitted light reports the rotation of a fluorescent probe.

Series [2] concerns the target T1, hSSB2 (C-terminally His-tagged). Description: fluorescence anisotropy; no MgCl2; Hill n 3.3; Anisotropy: standard LLPS buffer without MgCl2 (50 mM KCl standard), 25 C, 10 nM probe; EMSA: standard LLPS buffer (50 mM KCl, 10 mM MgCl2), 50 nM probe, 1% agarose; buffer species and pH not in the material. The following applies: protein: recombinant; tags: C-terminal His; label: 3'-fluorescein; single strand.

For series [3] the target is unchanged. The series can be described thus: fluorescence anisotropy; no MgCl2; Hill n 1.1; Anisotropy: standard LLPS buffer without MgCl2 (50 mM KCl standard), 25 C, 10 nM probe; EMSA: standard LLPS buffer (50 mM KCl, 10 mM MgCl2), 50 nM probe, 1% agarose; buffer species and pH not in the material. The following applies: protein: recombinant; tags: C-terminal His; label: 3'-fluorescein; single strand.

A further series concerns the target hSSB2-dIDR (Homo sapiens, UniProt Q96AH0 1-100). Description: fluorescence anisotropy; no MgCl2; Hill n 2.4; Anisotropy: standard LLPS buffer without MgCl2 (50 mM KCl standard), 25 C, 10 nM probe; EMSA: standard LLPS buffer (50 mM KCl, 10 mM MgCl2), 50 nM probe, 1% agarose; buffer species and pH not in the material. To be noted: protein: recombinant; tags: His (terminus not clearly stated); label: 3'-fluorescein; single strand.

T1 sequence (Q96AH0 whole entry): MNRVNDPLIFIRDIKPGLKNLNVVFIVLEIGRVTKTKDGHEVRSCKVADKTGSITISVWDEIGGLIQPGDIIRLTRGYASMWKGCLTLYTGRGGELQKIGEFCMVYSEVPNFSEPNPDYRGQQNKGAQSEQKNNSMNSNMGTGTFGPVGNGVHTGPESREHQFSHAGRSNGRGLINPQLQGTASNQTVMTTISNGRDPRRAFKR
Chain of hSSB2-dIDR (Q96AH0 1-100): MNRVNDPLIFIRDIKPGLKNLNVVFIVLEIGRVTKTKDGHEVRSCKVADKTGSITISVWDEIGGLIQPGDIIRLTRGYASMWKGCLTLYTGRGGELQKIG

One may read the Kd as the constant that tells how readily two partners part at equilibrium. For the molecule ATTTTTGCGGATGGCTTAGAGCTTAATTGCGCAACG (ssDNA) [ss36 DNA], the dissociation constant (Kd) in series [1] turned out to be 530 ± 20 nM.

Take AUUUUUGCGGAUGGCUUAGAGCUUAAUUGCGCAACG (ssRNA) [ss36 RNA]: the Kd in series [2] is 870 ± 170 nM.

B1: ss54 DNA (ssDNA)
DNA: TCCTTTTGATAAGAGGTCATTTTTGCGGATGGCTTAGAGCTTAATTGCGCAACG
Turning to B1, the values for the Kd (in series [3]; with hSSB2-dIDR) were 87 ± 7 nM and 850 ± 20 nM, respectively.
